Columns and labels:
[1] = target: the molecule itself; experiment: crystal structure
[2] = target: full-length XLF (XLF^FL) (human, UniProt Q9H9Q4 1-299); experiment: SEC

B1: XLF(1–224) (domain or fragment)
chain: MEELEQGLLMQPWAWLQLAENSLLAKVFITKQGYALLVSDLQQVWHEQVDTSVVSQRAKELNKRLTAPPAAFLCHLDNLLRPLLKDAAHPSEATFSCDCVADALILRVRSELSGLPFYWNFHCMLASPSLVSQHLIRPLMGMSLALQCQVRELATLLHMKDLEIQDYQESGATLIRDRLKTEPFEENSFLEQFMIEKLPEACSIGDGKPFVMNLQDLYMAVTTQ
[1]
  binding result: binds

B2: XRCC4(1–140) (domain or fragment)
chain: MERKISRIHLVSEPSITHFLQVSWEKTLESGFVITLTDGHSAWTGTVSESEISQEADDMAMEKGKYVGELRKALLSGAGPADVYTFNFSKESCYFFFEKNLKDVSFRLGSFNLEKVENPAEVIRELICYCLDTIAENQAK
[2]
  binding result: binds

Reference: article PMC3173232 (The Journal of Biological Chemistry, 2011)
